Measured values reported in PMC11663931.

Columns and labels:
[1] = target: human recombinant RetGC1 (retinal membrane guanylyl cyclase 1) (human) (UniProt Q02846)
[2] = target: human recombinant RetGC1 (retinal membrane guanylyl cyclase 1) (human) (UniProt Q02846); remark: listed apart in the source

UniProt Q02846, sequence (Q02846 52-1103): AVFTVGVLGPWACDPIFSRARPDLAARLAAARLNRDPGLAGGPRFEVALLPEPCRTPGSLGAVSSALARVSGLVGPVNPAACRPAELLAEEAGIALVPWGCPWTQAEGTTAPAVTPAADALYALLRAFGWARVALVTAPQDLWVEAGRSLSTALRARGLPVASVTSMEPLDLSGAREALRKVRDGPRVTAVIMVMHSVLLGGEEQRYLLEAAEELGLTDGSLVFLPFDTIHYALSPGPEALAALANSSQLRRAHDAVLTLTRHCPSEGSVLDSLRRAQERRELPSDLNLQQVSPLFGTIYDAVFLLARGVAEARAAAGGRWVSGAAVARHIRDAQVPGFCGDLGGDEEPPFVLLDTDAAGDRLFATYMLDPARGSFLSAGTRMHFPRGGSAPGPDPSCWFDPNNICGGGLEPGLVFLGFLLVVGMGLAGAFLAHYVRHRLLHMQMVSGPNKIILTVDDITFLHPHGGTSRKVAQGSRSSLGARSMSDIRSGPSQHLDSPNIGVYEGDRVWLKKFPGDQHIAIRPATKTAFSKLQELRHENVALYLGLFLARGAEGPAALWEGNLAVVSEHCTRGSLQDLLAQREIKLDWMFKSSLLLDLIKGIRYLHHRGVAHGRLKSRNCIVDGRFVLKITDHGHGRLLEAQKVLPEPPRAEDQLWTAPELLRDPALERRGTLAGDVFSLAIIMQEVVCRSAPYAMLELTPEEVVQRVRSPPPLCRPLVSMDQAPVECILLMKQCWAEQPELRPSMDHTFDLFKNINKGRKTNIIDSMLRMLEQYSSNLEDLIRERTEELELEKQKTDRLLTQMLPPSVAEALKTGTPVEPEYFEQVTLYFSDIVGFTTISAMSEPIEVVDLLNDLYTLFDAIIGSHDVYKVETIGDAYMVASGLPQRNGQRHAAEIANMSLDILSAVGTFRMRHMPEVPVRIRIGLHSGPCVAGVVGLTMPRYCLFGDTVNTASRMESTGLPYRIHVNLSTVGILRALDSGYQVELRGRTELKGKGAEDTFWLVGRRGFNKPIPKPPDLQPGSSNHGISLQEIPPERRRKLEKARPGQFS

K1/2 of GCAP1 for activating the guanylyl cyclase activity of recombinant RetGC1 in HEK293 membranes (hyperbolic fit, 0-10 μM GCAP1), with 50 mM NaHCO3 [1]: 2.9 µM | K1/2 of GCAP1 for activating the guanylyl cyclase activity of recombinant RetGC1 in HEK293 membranes (hyperbolic fit, 0-10 μM GCAP1), without NaHCO3 [1]: 1.47 µM | K1/2 of GCAP1 for activating the guanylyl cyclase activity of recombinant RetGC1, with additional 50 mM NaCl instead of bicarbonate (pilot measurement, not shown) [2]: 2 µM
B1: purified myristoylated bovine GCAP1 (guanylyl cyclase activating protein 1) (natural protein)
chain: MGNIMDGKSVEELSSTECHQWYKKFMTECPSGQLTLYEFRQFFGLKNLSPWASQYVEQMFETFDFNKDGYIDFMEYVAALSLVLKGKVEQKLRWYFKLYDVDGNGCIDRDELLTIIRAIRAINPCSDSTMTAEEFTDTVFSKIDVNGDGELSLEEFMEGVQKDQMLLDTLTRSLDLTRIVRRLQNGEQDEEGASGRETEAAEADG
modifications: N-myristoylated
